Results published in the nanobody polyreactivity screen of Harvey et al. (2022).

Assay: yeast display, Sf9 membrane polyspecificity reagent, FACS + sequencing; frameworks hold sequencing errors
How it was run: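 After 36–48 hours of galactose induction, yeast (Saccharomyces cerevisiae BJ5465) displaying a synthetic nanobody library were stained at 4 °C for 1 hour with 10% biotinylated, detergent-solubilized Sf9 membrane reagent. Streptavidin microbeads enriched the stained cells before FACS sorting into low and high (top ~1%) gates on anti-HA and streptavidin fluorescence. Each clone's polyreactivity label reflects its gate of origin.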

Row | Sequence | polyreactivity (PSR sort gate)
1 | QVQLVESGGGLVQAGGSLRLSCAASGFIFAYYAMGWYRQAPGKETELVAAITWSGGRTYYADSVKGRFTISRDNSKNTVYLQMNSLKPEDTAVYYCNAVRPSVDYGYWGQGTQVTVSS | high polyreactivity
2 | QVQLVESGGGLVQAGGSLRLSCAASGFIFAYYTMGWYRQAPGKEREFVASITYSGGNTYYADSVKGRFTISRDNAKNTVYLQMNSLKPEDTAVYYCATRDGYSISTTGLMDYWGQGTQVTVSS | low polyreactivity
3 | QVQLVESGGGLVQAGGSLRLSCAASGFIFDAYAMGWYRQAPGKERELVAAITRGNTYYADSVKGRFTISRDNAKNTVYLQMNSLKPEDTALYYCNADYNYANYPHDYWGQVTQVTVSS | low polyreactivity
4 | QVQLVESGGGLVQAGGSLRLSCAASGFIFDDNTMGWYRQAPGKERELVAAISYSAGSTYYADSVKGRFTISRDNAKNTVYLQMNSLKPEDTAVYYCAAQHYWVTSYLSSYDYWGQGTQVTVSS | low polyreactivity
5 | QVQLVESGGGLVQAGGSLRLSCAASGFIFDHNAMGWYRQAPGKERELVAAISGSGGSTYYADSVKGRFTISRDNAKNTVYLQMNSLKPEDTAVYYCNALKRTRLVRYYYWGQGTQVNVSS | high polyreactivity
6 | QVQLVESGGGLVQAGGSLRLSCAASGFIFDKNAMGWYRQAPGKERELVAAITSSGGSTYADSVKGRFTISRDNAKNTVYLQMNSLKPEDTAVYYCAARWYRPWYVTDSGDDYWGQGTQVTVSS | low polyreactivity
7 | QVQLVESGGGLVQAGGSLRLSCAASGFIFDLYAMGWYRQAPGKERELVAAISPSGGSTYYADSVKGRFTISRDNAKNTVYLQMNSLKPEDTAVYYCNTGIRWAISKEYDYWGQGTQVTVSS | high polyreactivity
8 | QVQLVESGGGLVQAGGSLRLSCAASGFIFDPYAMGWYRQAPGKERELVARITWSGGRTYYADSVKGRFTISRDNAKNTVYLQMNSLKPEDTAVYYCNADVYGFDYWGQGTQVTVSS | high polyreactivity
9 | QVQLVESGGGLVQAGGSLRLSCAASGFIFDQNAMGWYRQAPGKERELVAAISKRGGSTYYADSVKGRFTISRDTAKNTVYLQMNSLKPEDTAVYYCATRSWGPYYYGYNHWGQGTQVTVSS | high polyreactivity
10 | QVQLVESGGGLVQAGGSLRLSCAASGFIFDQYAMGWYRQAPGKERELVAAISSGGRTYYADSVKGRFTISRDNAKNTVYLQMNSLKPEDTAVYYCAAKSWTDSRVTGYWGQGTQVTVSS | high polyreactivity
11 | QVQLVESGGGLVQAGGSLRLSCAASGFIFDQYDMGWYRQAPGKERELVAAISDSGGSTYYADSVKGRFTISRDNAKNTVYLQMNSLKPEDTAVYYCAAGSYLAFGGLWFYYWGQGTQVTVSS | high polyreactivity
12 | QVQLVESGGGLVQAGGSLRLSCAASGFIFDSNPIGWYRQAPWKEREVVAAISSSGGSTYYADSVKGRFTISRDNAKNTVYLQMKSLKPEDTAVYYCGAESQRFISSSEVYWGQGTQVTVSS | low polyreactivity
13 | QVQLVESGGGLVQAGGSLRLSCAASGFIFDSYAMGWYRQAPGKERELVAAISWSGGRTYYADSVKGRFTISRDNAKNTVYLQMNSLKPEDTAVYYCNVRTKLSTSYDYWGQGTQVTVSS | high polyreactivity
14 | QVQLVESGGGLVQAGGSLRLSCAASGFIFDTYAMGWYRQAPGKERELVAAISRSGVRTYYADSVKGRFTISRDNAKNTVYLQMNSLTPEDTAVYYCNAALNRYHFGRAVPGDYWGQGTQVTVSS | high polyreactivity
15 | QVQLVESGGGLVQAGGSLRLSCAASGFIFDTYAMGWYRQAPGKERELVARINYSGGSTRYADSVKGRFTISRDNAKNTVYLQMNSLKPEDTAVYYCAAREFSYGFYYWGQGTQVTVSS | high polyreactivity
16 | QVQLVESGGGLVQAGGSLRLSCAASGFIFDVNAMGWYRQAPGKERELVATISKRGGTTYYADSVKGRFTISRDNAKNTVYLQMNSLKPEDTAVYYCAARHQTLRSYRYDYWGQGTQVTVSS | low polyreactivity
17 | QVQLVESGGGLVQAGGSLRLSCAASGFIFDVNAMGWYRQAPGKETELVAAISKSGRRTYYADSVKGRFTISRDNAKNTVYLQMNSLKPEDTAVYYCAASLRASPSFGYWGQGTQVTVSS | high polyreactivity
18 | QVQLVESGGGLVQAGGSLRLSCAASGFIFDVYAMGWYRQAPGKERELVAAISRSGGSTHYADSVKGRFTISRDNAKNTVYLQMNSLKPEDTAVYYCATGIRVGYAKYDYWGQGTQVTVSS | high polyreactivity
19 | QVQLVESGGGLVQAGGSLRLSCAASGFIFDVYAMGWYRQAPGKERELVAAITSGDGTNYADSVKGRFTISRDNAKNTVYLQMNSLKPEDTAVYYCAADDGVTYRGIIFSYWGQGSQVTVSS | low polyreactivity
20 | QVQLVESGGGLVQAGGSLRLSCAASGFIFDWNTMGWYRQAPGKERELVAAITESSGSTYYADSVKGRFTISRDNAKNTVYLQMNSLKPEDTAVYYCAADFSYVYYLYDYWGQGTQVTVSS | low polyreactivity
21 | QVQLVESGGGLVQAGGSLRLSCAASGFIFDWYAMGWYRQAPGKERELVAAITRSGGNTYYADSVKGRFTISRDNAKNTVYLQMNSLKPEDTAVYYCNAVAAVYAYGHDYWGQGTQVTVSS | high polyreactivity
22 | QVQLVESGGGLVQAGGSLRLSCAASGFIFDYNAMGWYRQAPGKERELVDAISGGGGSTYYADSVKGRFTISRDNAKNTVFLLMNSLKPEDTSVYDCAKRYRGGYWGQGSQVTVSS | high polyreactivity

Row | Sequence | polyreactivity (PSR sort gate)
23 | QVQLVESGGGLVQAGGSLRLSCAASGFIFDYYAMGWYRPAPAKERELVAAISCRGGTTYYADSVKGRFTISRDNAKNTVYLQMNSLKPEDTAVYYCAAGRFYGFGYGYWGQGTQVTVSS | high polyreactivity
24 | QVQLVESGGGLVQAGGSLRLSCAASGFIFDYYAMGWYRQAPGKERELVAAITRDGGGTYYADSVKGRFTISRDNAKNTVYFQMNSLKPEDTAVYYCAARTAYYHGSKYYYRGQGTQVTVSS | high polyreactivity
25 | QVQLVESGGGLVQAGGSLRLSCAASGFIFDYYAMGWYRQAPGKERELVAAITSRGGSTYYADSVKGRFTISRDNAKNTVYLQMNSLKPEDTAVYYCAARRRSAEYNYWGQGTQVTVSS | high polyreactivity
26 | QVQLVESGGGLVQAGGSLRLSCAASGFIFEPNAMGWYRQAPGKERELVAAISWSGGSTYYADSVKGRFTISRDNAKNTVYLQMNSLKPEDTAVYYCNAAVRGVGELDYWGQGTQVTVSS | high polyreactivity
27 | QVQLVESGGGLVQAGGSLRLSCAASGFIFEPNAMGWYRQAPGKERELVAAISWSGGSTYYADSVKGRFTISRDNAKNTVYLQMNSLKPEDTAVYYCNADITYAYYEYGSWGQGTQVTVSS | high polyreactivity
28 | QVQLVESGGGLVQAGGSLRLSCAASGFIFEPYAMGWYRQAPGKERELVAAISSGGSTYADSVKGRFTISRDNAKNTVYLQMNSLKPEDTAVYYCAADSYYSVWGFYYWGQGTQVTVSS | low polyreactivity
29 | QVQLVESGGGLVQAGGSLRLSCAASGFIFERNTMGWYRQAPGKERELVATISRSAGNTYYADSVKGRFTISRDNANNTVYLQMNSLKPEDSAAYYCAKDHRTRGYDYWGQGTQVSVSS | low polyreactivity
30 | QVQLVESGGGLVQAGGSLRLSCAASGFIFERYTMGWYRQAPGKERELVAAISDSGGSTYYADSVKGRFTISRDNAKNTVYLQMNSLKPEDTAVYYCATTQYTTYGRRYYWGQGTQVTVSS | high polyreactivity
31 | QVQLVESGGGLVQAGGSLRLSCAASGFIFFAYAMGWYRQAPGKERELVAAISRTGGSTYYADSVKGRFTISRDNAKNTVYLQMNSLKPEDTAVYYCARPKYAWSYSRGNYWGQGTQVTVSS | high polyreactivity
32 | QVQLVESGGGLVQAGGSLRLSCAASGFIFFEYAMGWYRQAPGKERELVAAISWSDDTTYYADSVKGRFTISRDNAKNTVYLQMNSLKPEDTAVYYCAAEKVSGQGEMDYWGQGTQVTVSS | low polyreactivity
33 | QVQLVESGGGLVQAGGSLRLSCAASGFIFFFYAMGWYSQAPGKERELVASISWNGGSTYYADSVKGRFTISRDNAKNTVYLQMNSLKPEDTAVYYCNKDPVSLWYYSKDYTYDYWGQGTQVTVSS | low polyreactivity
34 | QVQLVESGGGLVQAGGSLRLSCAASGFIFFGEYVMGWYRQAPGKEREFVAAISRSSATTYYADSVKGRFTISRDTAKNTVYLQMNSLKPEDTAVYYCNAGDLGRRWGMDYWGQGTQVTVSS | low polyreactivity
35 | QVQLVESGGGLVQAGGSLRLSCAASGFIFFGEYVMGWYRQAPGKEREFVAAITDSDGSTYYADSVKGRFTISRDNAKNTVYLQMTSLKPEDTAVYYCAAERVCSDMDYWGQGTQVTVSS | low polyreactivity
36 | QVQLVESGGGLVQAGGSLRLSCAASGFIFFLYAMGWYRQAPGKERELVARISGGGDSTSYADSVKGRFTISRDNAKNTVYLQMNSLKPEDTAVYYCAADVWGSGGELGYWGQGTQVTVSS | low polyreactivity
37 | QVQLVESGGGLVQAGGSLRLSCAASGFIFFRYAMGWYRQAPGKERELVAAISRTGGRTYYADSVKGRFTISRDNAKNTVYLQMNSLKPEDTAVYYCAARRHSRVKYRDYWGQGTQVTVSS | high polyreactivity
38 | QVQLVESGGGLVQAGGSLRLSCAASGFIFFYAMGWYRQAPGKERELVASIDSGVSTDYADSVKGRFTISRDNAKNTVYLQMNSLTPEDTAVYYCAADPWSSLNYDYWGQGTQVTVSS | low polyreactivity
39 | QVQLVESGGGLVQAGGSLRLSCAASGFIFFYYAMGWYRQAHGKERELVAAISASGGSTYYADSVKGRFTISRDNAKNTVYLQMNSLKPEDTAVYYCATDPISRARLYGQRDYWGQGTQVTVSS | high polyreactivity
40 | QVQLVESGGGLVQAGGSLRLSCAASGFIFGDNAMGWYRQAPGKERELVAAINSSGGRTYYADSVKGRFTISRDNAKNTVYLQMNSLKPEDTAVYYCNAAYGIASYGSSYYWGQGTQVTVSS | high polyreactivity
41 | QVQLVESGGGLVQAGGSLRLSCAASGFIFGDYAMGWYRQAPGKERELVAAISRSGGRTYYADSVKGRFTISRDNAKNTVYLQMNSLKPEDTAVYYCAKSSLNIYDYWGQGTQVTVSS | high polyreactivity
42 | QVQLVESGGGLVQAGGSLRLSCAASGFIFGGNAMGWFRQAPGKERELVAAIRSGGSTYYADSVKGRFTISRDNAKNTVYLQMNSLKPEDTAVYYCAAELYDVYDLDYWGQGTQVTVSS | low polyreactivity
43 | QVQLVESGGGLVQAGGSLRLSCAASGFIFGGNAMGWYRQAPGNERELVARISSGGITSYADSVKGRFTISRDNAKNSVYLQMYSLKPEDTAVYYCAADDYVSTQDDSYYEYDYWGQGTQVTVSS | low polyreactivity
